Where “and” joins values, the source holds several entries; their conditions need not be identical. Equal entries are not always repeated.

The target of data set [1] is T1, NS1_2-570 (Human parvovirus B19 isolate AU, UniProt P07298).
T1 construct: gene NS1; residues 2-570 of 671 (Nuc, OD, SF3 HD, TAD; ZnD missing); N-terminal His-MBP tag, TEV-treated; codon-optimized cDNA; E. coli Rosetta (DE3); monomer 62 kDa; ~830 kDa oligomer by gel filtration
The data set is described as follows: cryo-EM structure of complex. Format: binding. The settings on record: Mg2+ (5 mM MgCl2 in DNA complexes); Walker A site, one AMPPNP per protomer; DNA-free dodecamer; also ternary complexes with ssDNA (3.3 Å, hexamer) and dsDNA (3.43 Å, dodecamer).

Data set [2] concerns the molecule itself. The data set is described as follows: cryo-EM structure.
Data set [3] deals with the molecule itself. Kind of data set: SEC; NS1_200-501 (WT and 3G mutant) on Superdex 200 Increase 10/30 GL. (In general: Size exclusion chromatography separates by hydrodynamic size, large species first.)
Data set [4] concerns the target NS1_2-570 (Human parvovirus B19 (B19V), UniProt I7BP20 2-570). Kind of data set: EMSA; no ATP or Mg2+ listed. To be noted: protein: recombinant; tags: N-terminal His6-MBP, TEV protease treated; chain copies: 12; label: 5'-FAM on top strand; blunt. (In general: In EMSA bound probe runs differently from free probe, usually more slowly.)

T1 sequence (P07298 2-570): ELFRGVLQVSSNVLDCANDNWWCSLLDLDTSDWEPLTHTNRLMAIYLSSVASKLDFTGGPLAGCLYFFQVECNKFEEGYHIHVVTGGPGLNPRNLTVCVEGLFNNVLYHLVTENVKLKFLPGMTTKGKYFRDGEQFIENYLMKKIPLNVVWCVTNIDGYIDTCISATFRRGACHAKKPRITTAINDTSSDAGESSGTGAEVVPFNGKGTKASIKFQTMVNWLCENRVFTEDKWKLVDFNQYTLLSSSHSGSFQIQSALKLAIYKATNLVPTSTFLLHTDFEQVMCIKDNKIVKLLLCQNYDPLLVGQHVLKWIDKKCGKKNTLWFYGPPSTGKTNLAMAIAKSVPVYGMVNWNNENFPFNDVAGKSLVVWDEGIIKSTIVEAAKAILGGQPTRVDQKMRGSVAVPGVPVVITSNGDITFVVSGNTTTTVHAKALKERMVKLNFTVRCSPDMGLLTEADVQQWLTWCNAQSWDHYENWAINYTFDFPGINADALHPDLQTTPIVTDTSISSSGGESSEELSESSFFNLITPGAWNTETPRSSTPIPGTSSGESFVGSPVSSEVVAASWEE

Consider `Nc1ncnc2c1ncn2[C@@H]1O[C@H](COP(=O)(O)OP(=O)(O)NP(=O)(O)O)[C@@H](O)[C@H]1O` [AMPPNP], for which the AMPPNP binding site result in data set [1] is “one AMPPNP molecule is captured at the characteristic Walker A region of each NS1 protomer”.

B1: B19V NS1_2-570 protein (domain or fragment)
chain: ELFRGVLQVSSNVLDCANDNWWCSLLDLDTSDWEPLTHTNRLMAIYLSSVASKLDFTGGPLAGCLYFFQVECNKFEEGYHIHVVIGGPGLNPRNLTVCVEGLFNNVLYHLVTENVKLKFLPGMTTKGKYFRDGEQFIENYLMKKIPLNVVWCVTNIDGYIDTCISATFRRGACHAKKPRITTAINDTSSDAGESSGTGAEVVPFNGKGTKASIKFQTMVNWLCENRVFTEDKWKLVDFNQYTLLSSSHSGSFQIQSALKLAIFKATNLVPTSTFLLHTDFEQVMCIKDNKIVKLLLCQNYDPLLVGQHVLKWIDKKCGKKNTLWFYGPPSTGKTNLAMAIAKSVPVYGMVNWNNENFPFNDVAGKSLVVWDEGIIKSTIVEAAKAILGGQPTRVDQKMRGSVAVPGVPVVITSNGDITFVVSGNTTTTVHAKALKERMVKLNFTVRCSPDMGLLTEADVQQWLTWCNAQSWDHYENWAINYTFDFPGINADALHPDLQTTPIVTDTSISSSGGESSEELSESSFFNLITPGAWNTETPRSSTPIPGTSSGESFVGSSVSSEVVAASWEE
notes: source: E. coli Rosetta (DE3), purified (HisTrap, heparin, TEV protease, HisTrap, Superose 6 gel filtration)
For B1, the stoichiometry N (as a rule, the number of molecules, sites or subunits per partner or assembly) in data set [2] is 12 and 6.

B2: NS1_200-501 protein (domain or fragment)
chain: AEVVPFNGKGTKASIKFQTMVNWLCENRVFTEDKWKLVDFNQYTLLSSSHSGSFQIQSALKLAIFKATNLVPTSTFLLHTDFEQVMCIKDNKIVKLLLCQNYDPLLVGQHVLKWIDKKCGKKNTLWFYGPPSTGKTNLAMAIAKSVPVYGMVNWNNENFPFNDVAGKSLVVWDEGIIKSTIVEAAKAILGGQPTRVDQKMRGSVAVPGVPVVITSNGDITFVVSGNTTTTVHAKALKERMVKLNFTVRCSPDMGLLTEADVQQWLTWCNAQSWDHYENWAINYTFDFPGINADALHPDLQTT
notes: source: E. coli Rosetta (DE3), purified
B2: the “stoichiometry N” value in data set [3] was found to be 12.

B3: duplex DNA-1 (dsDNA)
DNA 1: AAGAAGACACCAAATCAGATGCCGCCGGTCGCCGCCGGTAGGCGGGAC
DNA 2: GTCCCGCCTACCGGCGGCGACCGGCGGCATCTGATTTGGTGTCTTCTT
Turning to B3, in data set [4], the binding result is reported as “binds”.
